{"source": "paper doi:10.1101/2021.08.16.456495", "about": "(bioRxiv, 2021)", "binders": {"B1": {"name": "Nanobody TCNB11 (VHH)", "VHH": "QLQLVESGGGLVQAGGSLRLSCTASGRTGTMGWFRQGPGKEREFVASHKWVAGSTYYADSVKGRFTISRDNAKNTLYLQMNSLKSEDTAVYYCAASSQIFYGATTSIKDFNSWGKGTRVTVSS"}, "B2": {"name": "Nanobody TCNB26 (VHH)", "VHH": "QVQLVESGGGLVQAGESLRLSCAASGRTFAMAWFRQAPGKEREFVAVRGWLGVTTYYADSVKGRFTISRDNAKNTLDLQMNSLKPEDTAVYYCAAGQYSSSLYDRETEYNYWGQGTRVTVSS"}, "B3": {"name": "Nanobody TCNB4 (VHH)", "VHH": "QRQLVESGGGLVQPGGSLRLSCAASGFTPGIYDIGWFRQAPGKEREGVSCISSRGSSTNYADSVKGRFIISRDNVKNTVYLQMNSLEPEDTAVYYCAAIYQPSNGCVLRPEYSYWGKGTPVTVSS"}, "B4": {"name": "Nanobody TCNB34 (VHH)", "VHH": "QWQLVESGGGLVQPGGSLRLSCAASGSTFSSYAMGWYRQAPGKECELVAAISRAGGSTNYADSVKGRFTISRDNAKNTVYLQMNSLKPEDTAVYYCNAAAEGETGSNWSLCEEYDYWGKGTRVTVSS"}}, "key": {"[1]": {"target": "Transcobalamin (TC), B12-bound, as in the TC:TCblR complex (human, UniProt P20062)", "sequence (P20062 19-427, one chain of several)": "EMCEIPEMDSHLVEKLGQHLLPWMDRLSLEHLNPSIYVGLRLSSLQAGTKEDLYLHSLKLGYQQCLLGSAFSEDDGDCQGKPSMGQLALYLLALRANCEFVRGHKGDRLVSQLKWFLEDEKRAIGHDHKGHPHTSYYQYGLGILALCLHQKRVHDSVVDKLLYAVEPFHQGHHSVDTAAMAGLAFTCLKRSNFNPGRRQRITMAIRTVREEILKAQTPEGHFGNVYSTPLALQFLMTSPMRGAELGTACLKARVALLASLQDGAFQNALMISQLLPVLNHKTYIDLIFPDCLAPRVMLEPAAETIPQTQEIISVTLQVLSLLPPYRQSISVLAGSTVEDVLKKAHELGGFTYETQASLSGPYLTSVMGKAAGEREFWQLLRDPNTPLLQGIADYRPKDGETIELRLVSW", "assay": "crystal structure"}, "[2]": {"target": "B12-bound complex of transcobalamin (TC) and its receptor TCblR (Homo sapiens)", "sequence (P20062 19-427 R227Q, chain 1 of 2)": "as the sequence (P20062 19-427, one chain of several) above, with R209Q counted along it", "sequence (Q9NPF0 53-171, chain 2 of 2, further chain)": "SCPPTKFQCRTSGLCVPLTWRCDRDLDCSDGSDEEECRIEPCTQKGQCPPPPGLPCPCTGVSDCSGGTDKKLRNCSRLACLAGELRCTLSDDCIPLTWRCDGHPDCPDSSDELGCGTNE", "assay": "MST"}, "[3]": {"target": "Transcobalamin receptor TCblR (CD320), crystallization construct, as in the TC:TCblR complex (human, UniProt Q9NPF0)", "sequence (Q9NPF0 53-171, one chain of several)": "as the sequence (Q9NPF0 53-171, chain 2 of 2, further chain) above", "assay": "crystal structure"}}, "data": [{"binder": "B1", "values": [{"measurement": "binding result", "setting": "[1]", "value": "binds"}]}, {"binder": "B2", "values": [{"measurement": "Kd", "setting": "[2]", "value": 87.4, "unit": "nM"}, {"measurement": "binding result", "setting": "[1]", "value": "binds"}]}, {"binder": "B3", "values": [{"measurement": "Kd", "setting": "[2]", "value": 5.2, "unit": "nM"}, {"measurement": "binding result", "setting": "[1]", "value": "binds"}, {"measurement": "binding result", "setting": "[3]", "value": "binds"}]}, {"binder": "B4", "values": [{"measurement": "Kd", "setting": "[2]", "value": 12.8, "unit": "nM"}, {"measurement": "binding result", "setting": "[1]", "value": "binds"}]}]}
